Experimental data taken from the supplement of paper PMC12764529.
± gives the half width of the 95% confidence interval.

Columns and labels:
[1] = folding stability dG unfold from chymotrypsin proteolysis; higher = more stable
How it was run: (§1)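 Sequencing followed digestion of designed mini-proteins with trypsin and chymotrypsin, each at 11 concentrations in threefold dilutions together with a no-protease condition. The mini-proteins were under 80 residues, had no cysteine, sat in a PA-tagged cDNA display construct, and were kept only if AlphaFold2 dimer inter-PAE was above 15. From the counts, Bayesian fitting gave K50, and unfolding free energy was derived against a sequence-predicted unfolded-state K50 and a shared folded-state K50, per protease or combined.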

[2] = folding stability dG unfold from trypsin proteolysis; higher = more stable
How it was run: as §1

[3] = folding stability dG unfold (combined trypsin and chymotrypsin); higher = more stable
How it was run: as §1

Sequence | folding stability dG unfold [1] [kcal/mol] | folding stability dG unfold [2] [kcal/mol] | folding stability dG unfold [3] [kcal/mol]
SAGGSAMTIEIVVPTLEAIEKLAEETGAEVVEVRFFEEEGLVVVRIKVPESKEELLEKIREALGLESAGGSA [r15_118_TrROS_Hall] | 2.1 ± 0.092 | 2.17 ± 0.069 | 2.11 ± 0.1
SAGGSAMTIEKREDGYLVITVDVPPGTSPEELAERLKKLFPNEEVTVTVVKDGKLVKEFVIKAEDLSAGGSA [r15_1047_TrROS_Hall] | 2.06 ± 0.034 | 2.25 ± 0.056 | 2.2 ± 0.071
SAGGSAMTLEEARELVERLVRELFPDAEVLDVDAVRLPDRLVLVDAVVRPKYRPDEVLRFRFLLGDSAGGSA [r15_627_TrMRF] | 4.106 ± 0.032 | 3.53 ± 0.1 | 3.94 ± 0.06
SAGGSAMTLRLELRVRLQVFNEDGELLGERELDIEIELEGEPLEVPPPPEIDPEEAARLLGLDPDGSAGGSA [r15_572_TrMRF] | 2.84 ± 0.039 | 0.909 ± 0.098 | 2.37 ± 0.25
SAGGSAMTTIVKTEPPTLDEEGNPYIRLTIKFPNGGTTTITLAPSELPQYLADLPPGFEVEEINPLSAGGSA [r15_339_JUSTAS] | 2.69 ± 0.038 | 2.41 ± 0.11 | 2.65 ± 0.11
SAGGSAMTTVTWTFPPSTSVEEAIEALKAQLEAERNEKIEIPSISVSTTGDTITVTLPIKIEPLPASAGGSA [r15_105_JUSTAS] | 0.327 ± 0.22 | 1.86 ± 0.049 | 1.26 ± 0.14
SAGGSAMTVEELKELFPGYPITEITDFQPVDGWYTLSIKYPNNGKKRQINVEGMPPELAKEIMELISAGGSA [r15_830_TrROS] | -0.394 ± 0.21 | 0.161 ± 0.036 | 0.0457 ± 0.098
SAGGSAMTVTKVGSETKTDPAKGIVTTTEITKLPTGGLTKTVTTTTIEGGKVKSSTTTTTAIPVGTSAGGSA [r15_283_JUSTAS] | 0.266 ± 0.065 | -0.156 ± 0.061 | 0.104 ± 0.085
SAGGSAMTVTVELEFEPVTVTDADGKEREVPVRVKVTAKVELVRDPETGELVERVEVTSIEIEVEPSAGGSA [r15_884_TrROS_Hall] | 1.92 ± 0.079 | 1.73 ± 0.069 | 1.87 ± 0.15
SAGGSAMTVTYTPSTKTITITDPSNGKPVKVTVTEEKPVVPGKNVYELTVTVPDTGGEKKILITLPSAGGSA [r15_209_JUSTAS] | -0.192 ± 0.15 | 0.848 ± 0.055 | 0.55 ± 0.11
SAGGSAMTVVKVTLKSPSGTTTVTLPAEEWERFLAAPEVSKTWTLTEVVEEEEPPPELDPEAVELGSAGGSA [r15_460_JUSTAS] | 1.12 ± 0.15 | 0.626 ± 0.11 | 0.864 ± 0.3
SAGGSAMTYTITLKTPGSQSLELSLDEKLKLLSQTIDPNTGVTTLTLEGDPEEAKKLEQEIKEKLASAGGSA [r15_662_JUSTAS] | 1.66 ± 0.11 | 1.56 ± 0.059 | 1.56 ± 0.17
SAGGSAMVDKTMTEEEARAFAEASGDPRVTVEPVENPNNDPNAPKKWRITVDGSGTPGSTILFTSPSAGGSA [r15_428_JUSTAS] | -0.928 ± 0.28 | -0.398 ± 0.12 | -0.55 ± 0.089
SAGGSAMVRLPDGTLVIDVKLPEDRPDAKVTVTVLEDGSPVGSVDVNTGKVTISVSPGVSVSITVESAGGSA [r15_180_JUSTAS] | 1.53 ± 0.046 | 2.12 ± 0.051 | 1.79 ± 0.052
SAGGSAMVSLEEAKEATLREVKAALGFSPDATPEELRARGVPVRVPITVRDEKGNVIAELELELPGSAGGSA [r15_391_JUSTAS] | 0.571 ± 0.046 | -0.118 ± 0.04 | 0.37 ± 0.039
SAGGSAMYTVTLTLPPSLAIPPDSTITVTFPDGSTETYSVDSGPVTITLTAPADGSTSVGVSLSVPSAGGSA [r15_992_JUSTAS] | 3.67 ± 0.04 | 2.6 ± 0.097 | 3.27 ± 0.1
SAGGSANFNVKLEIKIIERNPGNPDYVIVRIKVEHRHPNPDGNPMEHRRPIPWIMITDPEEIKEFISAGGSA [r15_1019_TrROS] | 2.39 ± 0.029 | 2.32 ± 0.12 | 2.36 ± 0.084
SAGGSANGKRVEVPITIFFYRRDPEDGKWEPIFPFEIPIRIPVPPGAEVTIEIEFTGNMFRITIEVSAGGSA [r15_537_TrROS] | 4.53 ± 0.094 | 3.19 ± 0.11 | 4.09 ± 0.13

Sequence | folding stability dG unfold [1] [kcal/mol] | folding stability dG unfold [2] [kcal/mol] | folding stability dG unfold [3] [kcal/mol]
SAGGSANLPPGQPKIITITIPLGEEVRNPDGEPMTPEDIADNFQERFGNIEVEKSPNGWLEVTFWLSAGGSA [r15_645_TrROS] | 0.637 ± 0.15 | 1.3 ± 0.06 | 1.18 ± 0.19
SAGGSANVQVEQTGDGKIKIEFPWYGAEITLNPKKGDIEVEVLPNYKNGQPPPEDEVKNLAKEILDSAGGSA [r15_735_TrROS] | 0.971 ± 0.047 | -0.0532 ± 0.092 | 0.739 ± 0.13
SAGGSAPAKVEPLRVKIEFTPPNGEKHTFPMEIHRVHDNAIEIQDGGQPIRIPPNLDNIQITDIELSAGGSA [r15_510_TrROS] | 0.558 ± 0.044 | -0.614 ± 0.34 | 0.356 ± 0.14
SAGGSAPDDVEVEIKNIHYNPNWGYIMITIKVDGPVDSIEIELPNGWEISVMRDKDGTMTIMFPFPSAGGSA [r15_736_TrROS] | 3.29 ± 0.18 | 2.43 ± 0.1 | 3.15 ± 0.32
SAGGSAPEDNYVVLIFIDISIEWKPKYDEDNGKNRIEFEWKLEIDIPTIVLPPDDPEAKDLLEDLLSAGGSA [r15_470_TrROS] | 3.35 ± 0.14 | 2.29 ± 0.067 | 2.94 ± 0.12
SAGGSAPEIPTDALVRVRDPNSDKWYEATVLEARKLPGGELVYLIRLTKDGNEELVPTDLATVELKSAGGSA [r15_62_JUSTAS] | 1.53 ± 0.12 | 1.05 ± 0.08 | 1.29 ± 0.098
SAGGSAPIRIIKDPEKGTIMIRVPGPITVNQELKLRDENGKPWEIKNVEVERVGGRLIITMKVEPASAGGSA [r15_838_TrROS] | 1.24 ± 0.19 | 1.19 ± 0.052 | 1.29 ± 0.11
SAGGSAPKIRVEIEIDPDNGTIKLEVQHDGKPVFEMTMRIDPNGKIKEMKFTFYVDPDNGKLEIMMSAGGSA [r15_770_TrROS] | 4.59 ± 0.26 | 3.68 ± 0.25 | 4.43 ± 0.17
SAGGSAPLPAREFADEIMKKSPGPVEITVVFKEPDEYYVAKITMNPNNGKPQIKVERIPPEDLKKLSAGGSA [r15_156_TrROS] | 0.626 ± 0.23 | 0.42 ± 0.065 | 0.467 ± 0.23
SAGGSAPNKWKTVDIEFMFPPDNLEEFVDEISKLPGIKASIEPVEYDPEGMYWMKIDITIPPGMKISAGGSA [r15_441_TrROS] | 1.74 ± 0.12 | 1.16 ± 0.048 | 1.64 ± 0.21
SAGGSAPPDTPLATIEFTLTPPDGSTTPTTITVPPSVVEEAAAAQKAAFEAAGWATTVTVATTTPLSAGGSA [r2_274_JUSTAS] | 0.246 ± 0.1 | 0.676 ± 0.015 | 0.526 ± 0.034
SAGGSAPPFYIAINPDKPKSIHIMPPGSPDMRDDDGSKVIPFRTEEEFLKLIQEIKKKGVDKIHIYSAGGSA [r15_1004_TrROS] | 0.744 ± 0.24 | -0.0618 ± 0.18 | 0.413 ± 0.24
SAGGSAPPIEIEIDKWERDPENGYVYATVKIKLPGKKIEIPIWMDDPPGQAENQVKMLAENIARQLSAGGSA [r15_979_TrROS] | 1.39 ± 0.11 | 0.807 ± 0.082 | 1.11 ± 0.13
SAGGSAPPKRRERIIQIPIKMKPGQTADEMVDNIADWIMDLLPPDMRIEIEVEYHPENGWIMVKIESAGGSA [r15_739_TrROS] | 2.09 ± 0.084 | 1.21 ± 0.089 | 1.63 ± 0.3
SAGGSAPPNLQIDIQINPGHGYIEVSVQIPGRHVKASAKLTEPGQLKMDIEFPGNGKEIDITIPISSAGGSA [r15_837_TrROS] | 2.61 ± 0.072 | 2.04 ± 0.14 | 2.37 ± 0.15
SAGGSAPPPGSTQVIVVEKRDAPPEEAAQEIADEIKEKYPNTSVEVQEEEVPPGEPVVRVTVYIPPSAGGSA [r15_916_JUSTAS] | 0.945 ± 0.15 | 0.845 ± 0.14 | 0.559 ± 0.48
SAGGSAPPPNTIPIRVKIEDKNGKWETITFPVKSGDDAKDFLNDNFPNVKVEYDPGAGWVTIEVPKSAGGSA [r15_313_TrROS] | 0.2 ± 0.094 | -0.868 ± 0.29 | -0.0942 ± 0.44
SAGGSAPRIRVHFWNPNTGQWHHIPVERLKKAIDKNPPGEELEFPIPGYPVKVQVEPDDGTIWIRMSAGGSA [r15_350_TrROS] | 1.17 ± 0.25 | 1.01 ± 0.061 | 1.19 ± 0.16
